“And” between values parts separate entries of the source, which are not always exact repeats. Equal entries are not always repeated.
T1: Mouse 4-1BB extracellular region recombinant protein (his-tag) (mouse, UniProt P20334 24-187)
T1 construct: extracellular domain; also called Mouse4-1BB, his-tag; not shown: his-tag
T1 sequence (looked up): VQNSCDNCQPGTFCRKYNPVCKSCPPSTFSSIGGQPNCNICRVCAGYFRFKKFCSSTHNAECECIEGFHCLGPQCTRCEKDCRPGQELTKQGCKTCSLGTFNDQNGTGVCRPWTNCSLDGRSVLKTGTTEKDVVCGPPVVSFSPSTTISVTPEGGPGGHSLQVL

B1: 137-7 VHH-hFc recombinant antibody (Fc fusion)
chain: QVQLVESGGGLVQPGGSLRLSCAASGFTLDSYAIAWFRQAPGKEREGVSCITSSGGSTNYADSVKGRFTISRDGAKNTVYLQLNSLKPEDTAIYYCAAFHRATCVILGEYDYWGQGTQVTVSS
notes: VHH fragment inserted into vector pFclG with human IgG1 Fc tag, expressed in HEK293F; also called CD137-7; not shown: human IgG1 Fc tag of the eukaryotic expression vector pFclG
B2: 137-16 VHH-hFc recombinant antibody (Fc fusion)
chain: EVQLVESGGGLVQAGASLTLSCVISGRTFSSYAMGWYRQAPGKERAFVGTITWNNDIIYSDSVKGRFTISTDDGKNTMYLQMNNLKPEDTAVYYCAAYSVPYGDFCTLNYDLMDYWGKGTLVTVSS
notes: VHH fragment inserted into vector pFclG with human IgG1 Fc tag, expressed in HEK293F; Preparation had non-specific bands, purity >70%; also called CD137-16; not shown: human IgG1 Fc tag of the eukaryotic expression vector pFclG
B3: 137-39 VHH-hFc recombinant antibody (Fc fusion)
chain: QVQLVESGGGLVHVGESLTLSCVISGGSSNLYGIGWYRQAPGQERKLVAVLHNEHTTKYLDSVKGRFFVSGDNAKNTLYLHMNNVKVEDTAVYYCNSASGTLAGTGYFASVGPWGQGTLVTVSS
notes: VHH fragment inserted into vector pFclG with human IgG1 Fc tag, expressed in HEK293F; Preparation had non-specific bands, purity about 30%; not shown: human IgG1 Fc tag of the eukaryotic expression vector pFclG
B4: 137-36 VHH-hFc recombinant antibody (Fc fusion)
chain: QVQLVESGGGLVQTGGSLTLSCVASGRRFEAYTIGWLRQAPGDLREGVGCIFGGTTFTGYDDSVKGRFTISRDTAKNTVYLRMNNLTSEDTATYYCAAEGRPGQIKGQHGCLTPSWYNYKGQGTQVTVSS
notes: VHH fragment inserted into vector pFclG with human IgG1 Fc tag, expressed in HEK293F; not shown: human IgG1 Fc tag of the eukaryotic expression vector pFclG
B5: 137-12 VHH-hFc recombinant antibody (Fc fusion)
chain: QVQLVESGGGLVHPGGSLRLSCAASGFTLDDSAIGWFRQAPGKEREGVSCRSRSGYMTKYADSVKGRFTISRYNANNTMYLQMNSLKPEDTAVYYCATTRRGYCSGYETKGVDYWGQGIQVTVSS
notes: as for B4

Target: T1, Mouse 4-1BB extracellular region …
Assay: ELISA, coated mouse 4-1BB-his 200 ng/well; antibody 1.11 µg/ml

Binder	absorbance at 450 nm
B1	0.191

Target: T2, Monkey 4-1BB extracellular region recombinant protein (his-tag) (monkey)
T2 construct: extracellular domain; also called Monkey4-1BB, his-tag
Assay: ELISA, coated monkey 4-1BB-his 200 ng/well; antibody 0.37 µg/ml

Binder	absorbance at 450 nm
B2	2.79
B1	3.19
B3	0.251
B4	0.276
B5	0.343

Target: T2, Monkey 4-1BB extracellular region …
Assay: ELISA, coated monkey 4-1BB-his 200 ng/well; antibody 0.014 µg/ml

Binder	absorbance at 450 nm
B2	0.447
B1	0.581
B3	0.292
B4	0.333
B5	0.385

Target: T3, Human 4-1BB extracellular domain recombinant protein (his-tag) (human, UniProt Q07011 24-186)
T3 construct: extracellular domain; also called Human4-1BB, his-tag; human 4-1BB extracellular region recombinant protein; not shown: his-tag
Assay: ELISA, coated human 4-1BB-his 200 ng/well; antibody 0.014 µg/ml

Binder	absorbance at 450 nm
B2	0.41
B1	0.589
B3	0.521
B4	0.413
B5	0.395

Target: T3, Human 4-1BB extracellular domain …
Assay: ELISA, coated human 4-1BB-his 200 ng/well; antibody 1.11 µg/ml

Binder	absorbance at 450 nm
B2	3.52
B3	0.62
B4	0.414
B5	0.376

Target: T2, Monkey 4-1BB extracellular region …
Assay: ELISA, coated monkey 4-1BB-his 200 ng/well; antibody 0 µg/ml (background well)

Binder	absorbance at 450 nm
B2	0.043
B1	0.055
B3	0.041
B4	0.041
B5	0.058

Target: T3, Human 4-1BB extracellular domain …
Assay: ELISA, coated human 4-1BB-his 200 ng/well

Binder	EC50
B2	0.536 µg/mL and 6.7 nM
B1	0.09 µg/mL and 1.12 nM
B3	6.04 µg/mL and 75.6 nM
B4	0.001 µg/mL and 0.011 nM
B5	6.3e-05 µg/mL and 0.001 nM

Target: T2, Monkey 4-1BB extracellular region …
Assay: ELISA, coated monkey 4-1BB-his 200 ng/well; antibody 0.12 µg/ml

Binder	absorbance at 450 nm
B2	1.17
B1	1.54
B3	0.306
B4	0.372
B5	0.376

Target: T3, Human 4-1BB extracellular domain …
Assay: ELISA, coated human 4-1BB-his 200 ng/well; antibody 0 µg/ml (background well)

Binder	absorbance at 450 nm
B2	0.096
B1	0.081
B3	0.128
B4	0.112
B5	0.087

Target: T1, Mouse 4-1BB extracellular region …
Assay: ELISA, coated mouse 4-1BB-his 200 ng/well; antibody 0.014 µg/ml

Binder	absorbance at 450 nm
B1	0.187

Target: T3, Human 4-1BB extracellular domain …
Assay: ELISA, coated human 4-1BB-his 200 ng/well; antibody 3.33 µg/ml

Binder	absorbance at 450 nm
B3	1
B4	0.454
B5	0.433

Target: T1, Mouse 4-1BB extracellular region …
Assay: ELISA, coated mouse 4-1BB-his 200 ng/well; antibody 0.37 µg/ml

Binder	absorbance at 450 nm
B1	0.201

Target: T1, Mouse 4-1BB extracellular region …
Assay: ELISA, coated mouse 4-1BB-his 200 ng/well; antibody 10.0 µg/ml

Binder	absorbance at 450 nm
B1	0.284

Target: T1, Mouse 4-1BB extracellular region …
Assay: ELISA, coated mouse 4-1BB-his 200 ng/well; antibody 0 µg/ml (background well)

Binder	absorbance at 450 nm
B1	0.209

Target: T1, Mouse 4-1BB extracellular region …
Assay: ELISA, coated mouse 4-1BB his-tag 200 ng/well

Binder	binding result
B1	no binding (tested: 0.014-10 µg/mL)

Target: T3, Human 4-1BB extracellular domain …
Assay: ELISA, coated human 4-1BB-his 200 ng/well; antibody 0.37 µg/ml

Binder	absorbance at 450 nm
B2	1.58
B3	0.458
B4	0.347
B5	0.341

Target: T1, Mouse 4-1BB extracellular region …
Assay: ELISA, coated mouse 4-1BB-his 200 ng/well; antibody 0.12 µg/ml

Binder	absorbance at 450 nm
B1	0.166

Target: T1, Mouse 4-1BB extracellular region …
Assay: ELISA, coated mouse 4-1BB-his 200 ng/well; antibody 3.33 µg/ml

Binder	absorbance at 450 nm
B1	0.218

Target: T2, Monkey 4-1BB extracellular region …
Assay: ELISA, coated monkey 4-1BB-his 200 ng/well; antibody 10.0 µg/ml

Binder	absorbance at 450 nm
B3	0.405
B4	1.91
B5	1.07

Target: T3, Human 4-1BB extracellular domain …
Assay: SPR (Biacore 8K), VHH-hFc captured on Protein A chip, human 4-1BB-his as analyte, 25°C, 1:1 fit

Binder	Kd	koff	kon
B2	33.3 nM	0.00274 s⁻¹	82200 M⁻¹ s⁻¹
B1	38 nM	0.0298 s⁻¹	783000 M⁻¹ s⁻¹

Target: T1, Mouse 4-1BB extracellular region …
Assay: ELISA, coated mouse 4-1BB-his 200 ng/well; antibody 0.041 µg/ml

Binder	absorbance at 450 nm
B1	0.18

Target: T3, Human 4-1BB extracellular domain …
Assay: ELISA, coated human 4-1BB-his 200 ng/well; antibody 0.041 µg/ml

Binder	absorbance at 450 nm
B2	0.419
B1	0.963
B3	0.477
B4	0.372
B5	0.355

Target: T2, Monkey 4-1BB extracellular region …
Assay: ELISA, coated monkey 4-1BB-his 200 ng/well; antibody 1.11 µg/ml

Binder	absorbance at 450 nm
B3	0.286
B4	0.456
B5	0.423

Target: T2, Monkey 4-1BB extracellular region …
Assay: ELISA, coated monkey 4-1BB-his 200 ng/well; antibody 0.041 µg/ml

Binder	absorbance at 450 nm
B2	0.581
B1	0.794
B3	0.387
B4	0.354
B5	0.37

Target: T2, Monkey 4-1BB extracellular region …
Assay: ELISA, coated monkey 4-1BB-his 200 ng/well

Binder	EC50
B2	0.234 µg/mL and 2.93 nM
B1	0.17 µg/mL and 2.12 nM
B3	0.001 µg/mL and 0.012 nM
B4	51.9 µg/mL and 649 nM
B5	10.3 µg/mL and 128 nM

Target: T3, Human 4-1BB extracellular domain …
Assay: ELISA, coated human 4-1BB-his 200 ng/well; antibody 0.12 µg/ml

Binder	absorbance at 450 nm
B2	0.704
B1	2.37
B3	0.461
B4	0.383
B5	0.334

Target: T3, Human 4-1BB extracellular domain …
Assay: ELISA, coated human 4-1BB-his 200 ng/well; antibody 10.0 µg/ml

Binder	absorbance at 450 nm
B3	1.45
B4	0.48
B5	0.432

Target: T2, Monkey 4-1BB extracellular region …
Assay: ELISA, coated monkey 4-1BB-his 200 ng/well; antibody 3.33 µg/ml

Binder	absorbance at 450 nm
B3	0.342
B4	0.879
B5	0.679

— patent publication EP4592317A1 (ABlink Biotech Co., Ltd., dated 2025)
